The text below walks through data of US20230080534A1, “SEMG2 ANTIBODY AND USE THEREOF” (SHANGHAI BIOTROY BIOTECHNIQUE CO., LTD., priority 2020, published 2023).

The experiment has as its system SEMG2(497-509) polypeptide and glycine mutation scanning sequence group. The experiment is described as follows: ELISA epitope mapping with glycine mutation scanning sequence group. Type of experiment: binding, human. An excerpt:
To further precisely define the exact epitopes (specific to the level of single amino acid) to which blocking antibodies MM02, MM05, MM07, MM08, MM13, MM14 bind, corresponding ELISA analysis method was established. […] Anti-mouse or anti-rabbit secondary antibodies were then used to detect the corresponding bound antibodies. […] Meanwhile, the different amino acids in the SEMG2(497-509) sequence had different degrees of influence on the binding of similar blocking antibodies (MM02, MM05, MM07, MM08, MM13, MM14) after substitution by glycine. […] The results precisely define the epitope amino acids associated with MM02 and similar antibodies (i.e., antibodies that block the binding between SEMG2 and CD27), and the contribution of each amino acid to the binding.
Background: ELISA stands for enzyme-linked immunosorbent assay.

B1: MM02: mouse monoclonal antibody against SEMG2(497-509), mIgG2b kappa, VH SEQ ID NO:35, VL SEQ ID NO:42 (antibody, V domains shown)
VH: QIQLVQSGPEVKKPGETVRISCKASGYTLTTAGIQWVQKMPGKGLKWIGWINTHSGVPEYAEDFKGRFAFFLETSASTAYLQISNLKNEDTATYFCARLGLLGYWGQGTTLTVSS
VL: DILLTQSPAILSVSPGERVSFSCRASQSIGTTIHWYQQRTNGSPRLLIKYASESISGIPSRFSGSGSGTDFTLSINSVESEDIADYYCQQSNSWPWTFGGGTKLEIKRA
modifications: UNSURE (1)..(115) VH; UNSURE (1)..(109) VL
Regarding B1, under “substitution of amino acids at positions 501 and 506”, the “decrease of antibody binding after glycine substitution” value is reported as “more than 70%”. Moreover, the “effect of glycine substitution on antibody binding” value (substitution of amino acids at positions 507 and 509) is “did not significantly affect”.
